Measurements from patent publication US20250026849A1 (ARCELLX, published 2025).
Changes are numbered by the printed parent chain. One block for each binder: values may come before it.

How the values were obtained:
[1] = target: T1, CD123 (Homo sapiens (Human), UniProt P26951 19-305, limits assumed); test: ELISA; parameters: unit not given here
T1 construct: The CD123 construct used in the ELISA is not described; also called CD123-Signal
T1 sequence: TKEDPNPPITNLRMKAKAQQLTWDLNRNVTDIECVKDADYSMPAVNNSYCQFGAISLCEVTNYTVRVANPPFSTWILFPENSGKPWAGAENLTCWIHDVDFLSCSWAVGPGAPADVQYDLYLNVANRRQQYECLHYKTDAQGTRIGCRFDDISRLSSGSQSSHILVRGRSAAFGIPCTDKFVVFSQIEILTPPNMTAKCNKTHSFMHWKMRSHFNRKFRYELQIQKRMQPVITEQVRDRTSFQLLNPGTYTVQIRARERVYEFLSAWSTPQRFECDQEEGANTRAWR

[2] = target: T2, BCMA (Homo sapiens (Human), UniProt Q02223 1-54, limits assumed); test: ELISA, format not described; parameters: unit not given here
T2 sequence: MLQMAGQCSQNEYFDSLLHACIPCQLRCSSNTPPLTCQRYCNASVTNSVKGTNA

ELISA_avg [1]: 7
B1: D domain of SEQ ID NO: 657 (designed binder)
chain: MGSWHEFWQRLEAIEGRLWALGGSEAELADFESLIADFEEQLQEYKGKGNPEVEALMAEAEAIDNELRAYRHN

ELISA_avg [1]: 3.3
B2: D domain of SEQ ID NO: 659 (designed binder)
chain: MGSWYEFENRLFAIEERLWALGGSEAELAWFEYEIANFEWGLQSYKGKGNPEVEALDNEAEAIDIELAAYRHN

ELISA_avg [1]: 3.4
B3: D domain of SEQ ID NO: 651 (designed binder)
chain: MGSWWEFNARLDAIEDRLMALGGSEAELAYFEDIIASFENILQQYKGKGNPEVEALWYEAYAIEKELNAYRHN

ELISA_avg [1]: 6.6
B4: D domain of SEQ ID NO: 656 (designed binder)
chain: MGSWFEFETRLEAIDLRLWALGGSEAELATFEDVIAFFEDWLQFYKGKGNPEVEALKMEAWAIGEELHAYRHN

ELISA_avg [1]: 3.7
B5: D domain of SEQ ID NO: 650 (designed binder)
chain: MGSWDEFAMRLEAIQARLFALGGSEAELAIFEDEIAFFETMLQDYKGKGNPEVEALEYEAAAIEAELGAYRHN

ELISA_avg [1]: 3.5
B6: D domain of SEQ ID NO: 646 (designed binder)
chain: MGSWYEFMGRLEAIDERLQALGGSEAELAWFEHEIAEFEWSLQWYKGKGNPEVEALRFEAGAIPWELWAYRHN

ELISA_avg [1]: 3.1
B7: D domain of SEQ ID NO: 649 (designed binder)
chain: MGSWWEFKYRLDAICFRLAALGGSEAELASFEDEIAYFEEDLQGYKGKGNPEVEALDYEALAIWDELAAYRHN

ELISA_avg [1]: 3.9
B8: D domain of SEQ ID NO: 648 (designed binder)
chain: MGSWEEFHMRLIAIDERLWALGGSEAELAGFEESIAYFESQLQDYKGKGNPEVEALDYEAHAIWRELYAYRHN

ELISA_avg [1]: 4.4
B9: D domain of SEQ ID NO: 658 (designed binder)
chain: MGSWYEFEQRLEAIEWRLGALGGSEAELATFEEDIADFEEWLQEYKGKGNPEVEALQYEAYAIAEELHAYRHN

ELISA_avg [1]: 4.5
B10: D domain of SEQ ID NO: 654 (designed binder)
chain: MGSWYEFLARLYAIDERLWALGGSEAELATFEHWIADFEEQLQSYKGKGNPEVEALTDEAVAIGEELSAYRHN

ELISA_avg [1]: 3.5
B11: D domain of SEQ ID NO: 653 (designed binder)
chain: MGSWNEFVIRLFAIDDRLYALGGSEAELAWFEDEIATFEYELQRYKGKGNPEVEALEYEAEAIVSELFAYRHN

ELISA_avg [1]: 5.1
B12: D domain of SEQ ID NO: 647 (designed binder)
chain: MGSWVEFSNRLDAIWERLQALGGSEAELAYFEWEIAEFEWELQSYKGKGNPEVEALNAEADAIEWELEAYRHN

ELISA_avg [2]: 8.71
B13: D-domain SEQ ID NO: 79 (designed binder)
chain: MGSWVEFKARLEAISSRLTALGGSEAELAAFEKEIAAFESELQAYKGKGNPEVEELRYSAALIRVYLQAYRHN

ELISA_avg [2]: 3.66
B14: D-domain SEQ ID NO: 80 (designed binder)
chain: B13 chain with V5S, K8Y, A9T, S15N, S16N, T19H, S59T, V65I

ELISA_avg [2]: 6.7
B15: D-domain SEQ ID NO: 73 (designed binder)
chain: MGSWVEFQERLMAISDRLYALGGSEAELAAFEKEIAAFESELQAYKGKGNPEVEELRWQAAMIRYTLQAYRHN

ELISA_avg [2]: 3.04
B16: D-domain SEQ ID NO: 78 (designed binder)
chain: B13 chain with K8R, A9S, S16N, T19R, Y58T, S59T

ELISA_avg [2]: 8.88
B17: D-domain SEQ ID NO: 72 (designed binder)
chain: B13 chain with K8Q, A9D, S15T, S16D, T19Y, L62M, Y66I

ELISA_avg [1]: 4.6
B18: D domain of SEQ ID NO: 655 (designed binder)
chain: MGSWLEFETRLHAIDERLWALGGSEAELAEFEEHIAWFEEDLQFYKGKGNPEVEALDFEADAIGWELWAYRHN

ELISA_avg [1]: 5.2
B19: D domain of SEQ ID NO: 652 (designed binder)
chain: MGSWIEFWNRLEAIEERLYALGGSEAELAYFEDEIAEFEIYLQQYKGKGNPEVEALKHEAEAINKELMAYRHN
